From patent US20020155121A1

Key:
[1] = target: CCR5 expressed on cells (L1.2/R5, Cf2Th-R5, U373/CD4/CCR5) (UniProt P51681); test: cell-based or functional assay
[2] = target: CXCR4 expressed on cells (L1.2/X4, U373/CD4/CXCR4) (UniProt P61073); test: cell-based or functional assay
[3] = target: CCR5 expressed on cells (L1.2/R5, Cf2Th-R5, U373/CD4/CCR5) (UniProt P51681); test: flow cytometry on L1.2/R5 cells

Sequence of UniProt P61073 (P61073 whole entry): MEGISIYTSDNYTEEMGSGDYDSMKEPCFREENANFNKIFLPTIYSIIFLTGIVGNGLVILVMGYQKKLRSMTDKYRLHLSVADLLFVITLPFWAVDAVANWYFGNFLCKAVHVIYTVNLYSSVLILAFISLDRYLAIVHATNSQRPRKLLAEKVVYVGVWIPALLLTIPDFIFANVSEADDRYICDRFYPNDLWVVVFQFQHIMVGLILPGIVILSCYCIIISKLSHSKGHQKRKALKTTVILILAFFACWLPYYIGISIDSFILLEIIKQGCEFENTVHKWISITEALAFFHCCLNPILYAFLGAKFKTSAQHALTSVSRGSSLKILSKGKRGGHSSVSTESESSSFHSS
Sequence of UniProt P51681 (P51681 whole entry): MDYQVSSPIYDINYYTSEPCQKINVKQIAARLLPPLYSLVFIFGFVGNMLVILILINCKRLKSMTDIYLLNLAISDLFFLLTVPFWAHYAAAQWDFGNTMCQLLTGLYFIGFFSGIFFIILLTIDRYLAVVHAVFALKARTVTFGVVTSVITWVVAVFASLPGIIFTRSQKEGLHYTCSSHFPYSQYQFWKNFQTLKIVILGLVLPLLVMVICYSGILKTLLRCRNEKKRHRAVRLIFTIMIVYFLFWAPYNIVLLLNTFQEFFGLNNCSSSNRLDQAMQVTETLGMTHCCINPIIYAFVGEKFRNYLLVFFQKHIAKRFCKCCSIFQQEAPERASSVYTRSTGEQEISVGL

Q: With “gp120-CD4-IgG1 chimeric polypeptide (Fc fusion)” as the substance, how does the ID90 (µg/mL), neutralization of 89.6 on U373/CD4/CCR5 [1] read?
A: 3.56 µg/mL

Q: What about the ID90 (µg/mL), neutralization of ADA on U373/CD4/CCR5 [1] of the same substance?
A: 4.58 µg/mL

Q: What about the ID90 (µg/mL), neutralization of BaL on U373/CD4/CCR5 [1] of the same substance?
A: 3.1 µg/mL

Q: What about the ID90 (µg/mL), neutralization of 89.6 on U373/CD4/CXCR4 [2] of the same substance?
A: > 10 µg/mL

Q: What about the ID90 (µg/mL), neutralization of 2005 on U373/CD4/CXCR4 [2] of the same substance?
A: > 10 µg/mL

Q: What about the ID90 (µg/mL), neutralization of 2044 on U373/CD4/CXCR4 [2] of the same substance?
A: > 10 µg/mL

Q: With “full-length single chain (FLSC) gp120-CD4 chimeric polypeptide (other; other documents disagree on this pair)” as the substance, how does the concentration of maximal binding [3] read?
A: 10 µg/mL

Q: Which fold higher concentration than FLSC to approach saturation binding [3] does the source give for “truncated single chain (TcSC) gp120-CD4 chimeric polypeptide (other; other documents disagree on this pair)” here?
A: 10 fold
